The results in this text go back to patent US20230012273A1 (Boehringer Ingelheim, published 2023).

Numbering of substitutions follows the chain as printed.

The target of assay [1] is full-length human SIRPβ1 D→H on Expi-CHO cells (human, UniProt O00241 30-398). The experiment in a line: flow cytometry, Expi-CHO cells. On the procedure: These cells are blocked with donkey IgG and incubated on ice with increasing concentrations of antibodies for 60 minutes, washed and stained with AF647-conjugated donkey F(ab′)₂ anti-human IgG antibodies. Stained cells are washed, fixed, and analyzed by flow cytometry. Median fluorescent intensity is determined and used as a measure of antibody binding.

The target of assay [2] is T1, human SIRPαV1 extracellular domain + His-tag (NP_542970.1) (human, UniProt P78324 31-373).
T1 construct: also called hSIRPαV1; HuSIRPαV1
The experiment in a line: SPR, Ab captured, ECD-His analyte. The method, then:
(§1) The binding affinity of anti-SIRPα antibodies to the various SIRPα analytes is determined by surface plasmon resonance (SPR) using a ProteOn XPR36 (Bio-Rad). The running buffer for this experiment and all dilutions (except where stated) are done in 1×HBS-EP+. […] The sensorchip is deactivated with 1M ethanolamine HCl for 420 sec at a flowrate of 10 μl/min.
(§2) The analyte is injected over the captured antibody for 300 sec at a flowrate of 30 μl/min. The dissociation is done for 600 sec. Two-fold serial dilutions of each SIRP protein (Extracellular Domain+His-Tag) are injected as analyte with the highest concentrations indicated in table 36 below.

The target of assay [3] is T2, human SIRPαV2 extracellular domain + His-tag (CAA71403.1) (human, UniProt P78324 31-373).
T2 construct: also called hSIRPαV2; HuSIRPαV2
The experiment in a line: SPR, Ab captured, ECD-His analyte. On the procedure:
as §1, §2

Assay [4] concerns the target T3, human SIRPβ1 extracellular domain + His-tag (NP_006056.2) (human, UniProt O00241 30-371).
T3 construct: also called hSIRPβ1; HuSIRPβ1
The experiment in a line: SPR, Ab captured, ECD-His analyte. On the procedure: as §1, §2

For assay [5], the target named is T4, mouse SIRPα extracellular domain + His-tag (NP_031573) (mouse, UniProt P97797 32-373).
T4 chain: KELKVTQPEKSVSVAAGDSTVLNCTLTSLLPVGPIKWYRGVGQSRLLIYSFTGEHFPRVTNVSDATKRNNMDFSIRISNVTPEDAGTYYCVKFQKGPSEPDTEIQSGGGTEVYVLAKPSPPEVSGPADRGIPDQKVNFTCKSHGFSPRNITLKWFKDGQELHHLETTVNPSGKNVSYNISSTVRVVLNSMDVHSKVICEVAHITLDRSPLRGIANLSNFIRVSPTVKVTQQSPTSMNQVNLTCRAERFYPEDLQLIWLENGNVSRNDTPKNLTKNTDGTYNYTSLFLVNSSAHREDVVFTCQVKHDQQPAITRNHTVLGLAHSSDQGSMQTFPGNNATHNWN
Kind of assay: SPR, Ab captured, ECD-His analyte. On the procedure: as §1, §2

In assay [6] the target is T5, cynomolgus SIRPα extracellular domain + His-tag (NP_001271679) (cynomolgus monkey).
T5 construct: also called CySIRPα NP_001271679; cynoSIRPα
T5 chain: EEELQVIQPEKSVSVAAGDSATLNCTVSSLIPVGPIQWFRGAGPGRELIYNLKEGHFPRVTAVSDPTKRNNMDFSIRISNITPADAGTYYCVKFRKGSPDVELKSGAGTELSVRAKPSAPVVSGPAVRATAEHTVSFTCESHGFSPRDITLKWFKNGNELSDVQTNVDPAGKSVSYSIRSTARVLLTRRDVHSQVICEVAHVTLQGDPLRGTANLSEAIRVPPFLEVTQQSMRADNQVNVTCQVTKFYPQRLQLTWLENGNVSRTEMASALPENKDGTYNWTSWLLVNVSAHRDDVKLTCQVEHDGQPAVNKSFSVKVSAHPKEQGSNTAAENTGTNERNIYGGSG
The experiment in a line: SPR, Ab captured, ECD-His analyte. The method, then: as §1, §2

In assay [7] the target is T6, full-length human SIRPβL (NP_001129316.1) on cells (human, UniProt Q5TFQ8 30-398).
T6 construct: on U937 SIRPα KO cells and Expi-CHO cells; also called βL WT; SIRPβ1v3
Kind of assay: flow cytometry, U937 SIRPα KO cells. The method, then: Antibody binding to cells expressing full-length human SIRPβ1 (NP_006056.2) and SIRPβL (NP_001129316.1) is evaluated by flow cytometry. SIRPβ1- or SIRPβL-expressing U937^{SIRPα KO} cells are blocked with donkey IgG and incubated on ice with increasing concentrations of antibodies for 60 minutes, washed and stained with AF647-conjugated donkey F(ab′)₂ anti-human IgG secondary reagent. Cells are washed, fixed, and analyzed by flow cytometry. Median fluorescent intensity is determined and used as a measure of antibody binding.

In assay [8] the target is T7, full-length human SIRPγ (NP_061026.2) on cells (human, UniProt Q9P1W8 29-387).
T7 construct: on CHO and Expi-CHO cells; endogenous on primary human CD3+ T cells; also called γ WT
Kind of assay: flow cytometry, primary human CD3+ T cells. The method, then:
Antibody binding to primary human T cells expressing endogenous SIRPγ is evaluated by flow cytometry. Human peripheral blood mononuclear cells (PBMCs) are blocked with donkey IgG and incubated on ice with increasing concentrations of antibody for 60 minutes, washed and stained with AF647-conjugated donkey F(ab′)₂ anti-human IgG secondary reagent. […] Cells are washed, fixed, and analyzed by flow cytometry. Median fluorescent intensity of CD3+ gated population is determined and used as a measure of antibody binding.

Chain of full-length human SIRPβ1 D→H on Expi-CHO cells (O00241 30-398 D130H): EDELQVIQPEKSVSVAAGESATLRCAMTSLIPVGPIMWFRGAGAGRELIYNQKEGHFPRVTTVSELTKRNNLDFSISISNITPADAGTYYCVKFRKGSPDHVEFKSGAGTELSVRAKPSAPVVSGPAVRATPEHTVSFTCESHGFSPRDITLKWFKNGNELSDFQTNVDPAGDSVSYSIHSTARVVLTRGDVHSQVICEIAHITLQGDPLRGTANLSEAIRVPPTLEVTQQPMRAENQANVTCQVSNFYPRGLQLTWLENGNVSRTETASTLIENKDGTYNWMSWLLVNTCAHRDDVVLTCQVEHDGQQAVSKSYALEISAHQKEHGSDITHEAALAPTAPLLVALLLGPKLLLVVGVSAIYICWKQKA
T3 sequence (O00241 other isoform, or with tags, fused parts or gaps): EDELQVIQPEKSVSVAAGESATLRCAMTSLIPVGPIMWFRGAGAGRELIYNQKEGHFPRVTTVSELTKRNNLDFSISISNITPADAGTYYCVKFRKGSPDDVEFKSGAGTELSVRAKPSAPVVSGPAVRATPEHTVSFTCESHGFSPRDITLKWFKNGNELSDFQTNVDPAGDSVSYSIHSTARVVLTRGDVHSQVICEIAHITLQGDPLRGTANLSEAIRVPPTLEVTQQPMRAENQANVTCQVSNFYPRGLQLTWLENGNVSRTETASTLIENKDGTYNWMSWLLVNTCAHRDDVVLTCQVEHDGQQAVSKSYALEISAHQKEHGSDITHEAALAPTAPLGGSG
T1 sequence (P78324 other isoform, or with tags, fused parts or gaps): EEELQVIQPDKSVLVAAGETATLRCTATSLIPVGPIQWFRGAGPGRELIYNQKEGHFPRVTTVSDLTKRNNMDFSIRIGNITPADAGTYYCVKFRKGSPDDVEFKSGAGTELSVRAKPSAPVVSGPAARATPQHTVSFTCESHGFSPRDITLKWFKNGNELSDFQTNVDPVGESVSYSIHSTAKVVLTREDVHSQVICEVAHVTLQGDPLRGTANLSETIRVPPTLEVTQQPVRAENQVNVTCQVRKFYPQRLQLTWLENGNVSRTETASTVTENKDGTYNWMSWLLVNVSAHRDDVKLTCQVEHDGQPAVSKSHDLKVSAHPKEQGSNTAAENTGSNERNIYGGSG
T2 sequence (P78324 other isoform, or with tags, fused parts or gaps): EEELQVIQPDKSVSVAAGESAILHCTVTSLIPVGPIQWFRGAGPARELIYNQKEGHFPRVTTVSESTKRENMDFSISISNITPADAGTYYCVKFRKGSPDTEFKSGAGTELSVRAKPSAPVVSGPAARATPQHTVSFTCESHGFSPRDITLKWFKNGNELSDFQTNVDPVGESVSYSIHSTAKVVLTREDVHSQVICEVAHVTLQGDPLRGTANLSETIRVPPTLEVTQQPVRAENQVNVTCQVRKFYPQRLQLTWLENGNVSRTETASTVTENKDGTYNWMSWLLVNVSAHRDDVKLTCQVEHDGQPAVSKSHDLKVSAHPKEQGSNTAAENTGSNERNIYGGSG
T6 sequence (Q5TFQ8 30-398): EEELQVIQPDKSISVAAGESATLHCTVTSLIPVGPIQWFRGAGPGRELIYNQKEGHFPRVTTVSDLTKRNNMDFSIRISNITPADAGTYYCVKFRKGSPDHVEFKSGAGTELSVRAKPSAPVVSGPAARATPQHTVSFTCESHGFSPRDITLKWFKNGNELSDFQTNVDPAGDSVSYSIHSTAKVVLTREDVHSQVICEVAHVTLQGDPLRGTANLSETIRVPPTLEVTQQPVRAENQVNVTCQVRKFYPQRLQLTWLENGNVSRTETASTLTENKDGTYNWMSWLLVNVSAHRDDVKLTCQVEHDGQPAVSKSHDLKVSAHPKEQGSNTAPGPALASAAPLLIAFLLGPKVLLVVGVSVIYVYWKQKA
T7 sequence (Q9P1W8 29-387): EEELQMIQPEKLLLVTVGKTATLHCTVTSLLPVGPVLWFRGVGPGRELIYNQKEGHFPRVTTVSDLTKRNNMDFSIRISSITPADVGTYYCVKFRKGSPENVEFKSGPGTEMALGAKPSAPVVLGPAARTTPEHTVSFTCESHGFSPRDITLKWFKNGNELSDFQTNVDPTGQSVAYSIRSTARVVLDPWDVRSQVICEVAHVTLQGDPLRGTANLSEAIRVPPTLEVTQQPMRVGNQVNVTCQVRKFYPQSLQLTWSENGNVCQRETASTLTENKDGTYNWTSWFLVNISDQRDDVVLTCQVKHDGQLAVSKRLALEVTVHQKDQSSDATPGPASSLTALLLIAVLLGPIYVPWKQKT

B1: Antibody C (antibody, human IgG1, kappa, L234A L235A, V domains shown)
VH: EVQLVESGGGLVQPGGSLRLSCAASGFTFSSYDMHWVRQATGKGLEWVSVIGIAGDTYYPGSVKGRFTISRENAKNSLYLQMNSLRVGDTAVYYCARGGSWDDAFDIWGQGTMVTVSS
VL: DIQMTQSPSSLSASIGDKVTITCRASQDINNYLAWFQQKPGKAPKSLIYTASSLQSGVPSKFSGSGSGTDFTLTISSLQPEDFATYYCQQYVSYPYTFGQGTKLEIKR
For B1, the binding result in assay [1] and in assay [5] was “no binding” each time. In addition, the Kd in assay [2] stood at 0.627 nM; in assay [3] it was 0.0969 nM; in assay [4] it was 2.14 nM; in assay [6] it was 14.3 nM.

B2: Antibody D (antibody, human IgG1, kappa, L234A L235A, V domains shown)
VH: B1 VH with Y32F, A40P, V50T, Y59F, V87A, S100N, F105L
VL: B1 VL with I15V, K18R, V92N, S93T
Consider B2, for which the results for the binding result in assay [1], in assay [5] and in assay [6] were “no binding”, “no binding” and “no binding (tested: 1000 nM)”, respectively. The Kd in assay [2] stood at 4.04 nM; in assay [3] it was 4.05 nM; in assay [4] it was 16.5 nM.

B3: Antibody A11 (antibody, human IgG4 S228P, kappa)
heavy: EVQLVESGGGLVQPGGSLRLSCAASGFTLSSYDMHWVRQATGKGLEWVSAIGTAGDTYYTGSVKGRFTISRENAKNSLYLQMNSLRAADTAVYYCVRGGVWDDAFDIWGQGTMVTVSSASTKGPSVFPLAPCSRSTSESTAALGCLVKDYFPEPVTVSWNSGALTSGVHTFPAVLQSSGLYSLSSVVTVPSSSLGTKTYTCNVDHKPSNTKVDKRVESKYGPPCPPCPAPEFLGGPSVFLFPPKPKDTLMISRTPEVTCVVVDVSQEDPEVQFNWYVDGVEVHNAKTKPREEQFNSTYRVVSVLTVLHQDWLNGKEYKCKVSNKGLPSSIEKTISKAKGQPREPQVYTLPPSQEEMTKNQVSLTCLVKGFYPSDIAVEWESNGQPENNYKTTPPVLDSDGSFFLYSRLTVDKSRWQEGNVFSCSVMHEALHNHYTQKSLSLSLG
light: DIQMTQSPSSLSASVGDRVTITCRASQDINNYLAWFQQKPGKAPKSLIYTASSLHSGVPSKFSGSGSGTDFTLTISSLQPEDFATYYCQQYVSYPYTFGQGTKLEIKRTVAAPSVFIFPPSDEQLKSGTASVVCLLNNFYPREAKVQWKVDNALQSGNSQESVTEQDSKDSTYSLSSTLTLSKADYEKHKVYACEVTHQGLSSPVTKSFNRGEC
On to B3, for which the binding result in assay [7] and in assay [8] was “no binding” each time.
